*1 amine or outer side, *2 acyl side, *3 side chain or, on linkers, in order; H or OH if unused. Bridges are numbered along the chain shown (N, C = ends). Primed or numbered codes have the meaning given here. Where no end group is shown, it is not given here. [ ]: non-standard residue; d: D form. Tyr(Me) = COc1ccc(C[C@H](N[*:1])C(=O)[*:2])cc1; NMePhe(3-Cl) = CN[C@@H](Cc1cccc(Cl)c1)C(=O)O; NMeW = CN[C@@H](Cc1c[nH]c2ccccc12)C(=O)O; NMeY = CN[C@@H](Cc1ccc(O)cc1)C(=O)O; PEG11′ = not defined here; Aib = CC(C)(N)C(=O)O

The target of assay [1] is T1, human transferrin receptor (hTfR) (human, UniProt P02786 89-760, limits assumed).
T1 construct: hTfR solution immobilised on NTA chip (Ni capture plus EDC/NHS); also called human TfR
Nature of the assay: SPR in accordance with Example 2. As for the experimental part: (§1) For each of the various synthesized peptides, the intermolecular interaction of the peptide with the transferrin receptor (hTfR) was tested by surface plasmon resonance (SPR) according to the following method. The specific test method is as follows.
(§2) An NTA sensor chip (Global Life Sciences Technologies Japan) was inserted in a Biacore T200 (Global Life Sciences Technologies Japan) and a prime operation was performed 3 times with a running buffer: 10 mM HEPES pH 8.0 (Nacalai Tesque), 150 mM NaCl (Nacalai Tesque), 0.05% Tween 20 (Nacalai Tesque), 0.1% BSA (Sigma-Aldrich), 1.0% DMSO (FUJIFILM Wako Pure Chemical) to create an Equilibration state at a flow rate of 30 µL/min. After reacting with 350 mM EDTA solution for 60 seconds at a flow rate of 10 µL/min then reacting with 0.5 mM NiCl₂ solution (Kishida Chemical) for 60 seconds at a flow rate of 10 µL/min, the NTA sensor chip was washed with 3 mM EDTA solution (Nacalai Tesque) for 60 seconds at a flow rate of 10 µL/min. After mixing 50 µL each of 60 mM EDC solution (Global Life Sciences Technologies Japan) and 650 mM NHS solution (Global Life Sciences Technologies Japan), the mixture was reacted for 420 seconds at a flow rate of 10 µL/min. […] An obtained sensorgram was subjected to curve fitting using the least-squares method, and the binding of the peptide to hTfR was evaluated by obtaining KD values.

Assay [2] has as its target T1, human transferrin receptor (hTfR). The assay is described as follows: SPR according to Example 2. The procedure: as §1, §2
Assay [3] has the same target. Nature of the assay: SPR, hTfR immobilised. As for the experimental part: An NTA sensor chip (Global Life Sciences Technologies Japan) was inserted in a Biacore T200 (Global Life Sciences Technologies Japan) and a prime operation was performed 3 times with a running buffer: 10 mM HEPES pH 8.0 (Nacalai Tesque), 150 mM NaCl (Nacalai Tesque), 0.05% Tween 20 (Nacalai Tesque), 0.1% BSA (Sigma-Aldrich), 1.0% DMSO (FUJIFILM Wako Pure Chemical) to create an Equilibration state at a flow rate of 30 µL/min. After reacting with 350 mM EDTA solution for 60 seconds at a flow rate of 10 µL/min then reacting with 0.5 mM NiCl₂ solution (Kishida Chemical) for 60 seconds at a flow rate of 10 µL/min, the NTA sensor chip was washed with 3 mM EDTA solution (Nacalai Tesque) for 60 seconds at a flow rate of 10 µL/min. After mixing 50 µL each of 60 mM EDC solution (Global Life Sciences Technologies Japan) and 650 mM NHS solution (Global Life Sciences Technologies Japan), the mixture was reacted for 420 seconds at a flow rate of 10 µL/min. By diluting with the running buffer, 150 µL of 3.2 µM hTfR solution was prepared and used for reaction for 600 seconds at a flow rate of 10 µL/min, thereby immobilizing hTfR on the NTA sensor chip. […] An obtained sensorgram was subjected to curve fitting using the least-squares method, and the binding of the peptide to hTfR was evaluated by obtaining KD values.
For orientation: SPR reads the build-up and loss of mass on a sensor chip optically.

T1 sequence (P02786 89-760 limits assumed): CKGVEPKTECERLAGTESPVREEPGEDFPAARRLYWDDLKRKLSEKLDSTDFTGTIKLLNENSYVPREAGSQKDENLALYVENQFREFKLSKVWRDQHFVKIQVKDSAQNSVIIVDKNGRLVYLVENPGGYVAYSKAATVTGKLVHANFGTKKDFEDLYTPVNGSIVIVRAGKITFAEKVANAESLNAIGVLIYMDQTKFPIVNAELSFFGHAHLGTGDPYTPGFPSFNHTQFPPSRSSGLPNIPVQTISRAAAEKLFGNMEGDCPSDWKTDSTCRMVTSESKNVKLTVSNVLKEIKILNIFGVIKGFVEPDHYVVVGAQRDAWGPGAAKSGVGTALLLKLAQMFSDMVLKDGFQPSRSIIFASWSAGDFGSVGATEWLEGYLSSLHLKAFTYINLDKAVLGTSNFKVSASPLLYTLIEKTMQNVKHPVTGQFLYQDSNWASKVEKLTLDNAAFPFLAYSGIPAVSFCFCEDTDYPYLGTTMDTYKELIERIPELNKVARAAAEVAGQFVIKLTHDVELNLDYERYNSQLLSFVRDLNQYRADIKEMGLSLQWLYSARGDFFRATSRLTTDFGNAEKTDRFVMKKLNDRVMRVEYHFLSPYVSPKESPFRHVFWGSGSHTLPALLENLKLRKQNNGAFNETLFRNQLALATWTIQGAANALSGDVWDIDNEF

B1: JCR_hTfR_000894_PEG11_K(FITC) (peptide)
peptide: AVFVWNYYIIRRYYC
modifications: 14 MeTyr; C-term PEG11-K(FITC); cyclic 1-15 thioether
B1: in assay [1], binding was put at a Kd of 0.28 nM.

B2: hTfR_000894_PEG11_(VivoTag) (peptide)
peptide: {CH2CO}-AVFVWNYYIIRRY[NMeY]C
modifications: thioether N-15; not fully specified (C-terminus); also: linker PEG11 in text, PEG12 in table
notes: also called hTfRNo.894-vivotag750; hTfRNo.894-PEG11-Vivotag750
In turn, B2 registered a Kd in assay [2] of 1.09 nM.

B3: Flip_894_PEG4_KFITC (peptide)
peptide: {CH2CO}-A[NMeY]F[dR][Aib]IY[Tyr(Me)]YN[NMeW]V[NMePhe(3-Cl)]VC
modifications: thioether N-15; not fully specified (C-terminus); also: PEG4c not defined
notes: also called Flip894_variant61_PEG4dk5FAM; Flip894_variant61_PEG4dk5FA
For the molecule B3, the binding result in assay [3] is “no binding”.

B4: hTfRNo.894FLIP-vivotag750 (peptide)
peptide: {CH2CO}-A[NMeY]YRRIIYYNWVFVC-{PEG11′-VivoTag750}
modifications: thioether N-15 (inferred); not fully specified; printed as ClAc-Ala-MeTyr-Tyr-Arg-Arg-Ile-Ile-Tyr-Tyr-Asn-Trp-Val-Phe-Val-Cys
notes: also called hTfRNo.894FLIP-PEG11-Vivotag750
B4: the binding result in assay [2] is given as “no binding”.

B5: FLIP_000894_PEG11_K_FITC (peptide)
peptide: {CH2CO}-A[NMeY]YRRIIYYNWVFVC-{PEG11′-K(FITC)}
modifications: thioether N-15
For B5, the binding result in assay [3] is “no binding”.

The Kd is the constant that tells how readily two partners part at equilibrium. A higher Kd goes with weaker binding.

Source of the values: patent US20230203098A1 (published 2023).
